Measured values published in patent publication EP1506972A1 (Genentech Inc., dated 2005).
Numbering of substitutions follows the chain as printed.

Assays:
Assay in all cases: competitive phage ELISA, soluble IGFBP-1 vs coated IGFBP-1
[1] = target: T1, IGF-I S51A (G1S-A70V background) displayed on phage (human; bacteriophage M13)
T1 construct: not shown: Display carrier: M13 gene III protein fragment (residues 249-406) and the junction to it
T1 chain: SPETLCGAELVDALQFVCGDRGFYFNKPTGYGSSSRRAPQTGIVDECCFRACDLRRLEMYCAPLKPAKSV

[2] = target: T2, IGF-I P66A (G1S-A70V background) displayed on phage (human; bacteriophage M13)
T2 construct: not shown: Display carrier: M13 gene III protein fragment (residues 249-406) and its junction to Val70

[3] = target: T3, IGF-I M59A (G1S-A70V background) displayed on phage (human; bacteriophage M13)
T3 construct: not shown: M13 gene III fragment (residues 249-406), the display partner, and its junction to IGF-I
T3 chain: T1 chain with A51S, M59A

[4] = target: T4, IGF-I D53A (G1S-A70V background) displayed on phage (human; bacteriophage M13)
T4 construct: not shown: Display carrier: M13 gene III protein fragment (residues 249-406) and the junction to it
T4 chain: T1 chain with A51S, D53A

[5] = target: T5, IGF-I K65A (G1S-A70V background) displayed on phage (human; bacteriophage M13)
T5 construct: not shown: M13 gene III fragment (residues 249-406), the display partner, and its junction to IGF-I
T5 chain: T1 chain with A51S, K65A

[6] = target: T6, IGF-I E9A (G1S-A70V background) displayed on phage (human; bacteriophage M13)
T6 construct: not shown: M13 gene III fragment (residues 249-406, display carrier) and the IGF-g3 junction
T6 chain: T1 chain with E9A, A51S

[7] = target: T7, IGF-I R55A (G1S-A70V background) displayed on phage (human; bacteriophage M13)
T7 construct: not shown: Display carrier: M13 gene III protein fragment (residues 249-406) and the junction to it
T7 chain: T1 chain with A51S, R55A

[8] = target: T8, IGF-I D12A (G1S-A70V background) displayed on phage (human; bacteriophage M13)
T8 construct: not shown: M13 gene III fragment (residues 249-406, display carrier) and the IGF-g3 junction
T8 chain: T1 chain with D12A, A51S

[9] = target: T9, IGF-I K27A (G1S-A70V background) displayed on phage (human; bacteriophage M13)
T9 construct: not shown: Display carrier: M13 gene III protein fragment (residues 249-406) and the junction to it
T9 chain: T1 chain with K27A, A51S

[10] = target: T10, IGF-I V17A (G1S-A70V background) displayed on phage (human; bacteriophage M13)
T10 construct: not shown: M13 gene III fragment (residues 249-406, display carrier) and the IGF-g3 junction
T10 chain: T1 chain with V17A, A51S

[11] = target: T11, IGF-I Y60A (G1S-A70V background) displayed on phage (human; bacteriophage M13)
T11 construct: not shown: M13 gene III fragment (residues 249-406), the display partner, and its junction to IGF-I
T11 chain: T1 chain with A51S, Y60A

[12] = target: T12, IGF-I R50A (G1S-A70V background) displayed on phage (human; bacteriophage M13)
T12 construct: not shown: Display carrier: M13 gene III protein fragment (residues 249-406) and the junction to it
T12 chain: T1 chain with R50A, A51S

[13] = target: T13, IGF-I Q15A (G1S-A70V background) displayed on phage (human; bacteriophage M13)
T13 construct: not shown: M13 gene III fragment (residues 249-406, display carrier) and the IGF-g3 junction
T13 chain: T1 chain with Q15A, A51S

[14] = target: T14, IGF-I Y31A (G1S-A70V background) displayed on phage (human; bacteriophage M13)
T14 construct: not shown: Display carrier: M13 gene III protein fragment (residues 249-406) and the junction to it
T14 chain: T1 chain with Y31A, A51S

[15] = target: T15, IGF-I S1G (single mutant of G1S-A70V) displayed on phage (human; bacteriophage M13, UniProt P05019 49-117)
T15 construct: not shown: Display carrier: M13 gene III protein fragment (residues 249-406) and its junction to Val70

[16] = target: T16, IGF-I L54A (G1S-A70V background) displayed on phage (human; bacteriophage M13)
T16 construct: not shown: Display carrier: M13 gene III protein fragment (residues 249-406) and the junction to it
T16 chain: T1 chain with A51S, L54A

[17] = target: T17, IGF-I P28A (G1S-A70V background) displayed on phage (human; bacteriophage M13)
T17 construct: not shown: Display carrier: M13 gene III protein fragment (residues 249-406) and the junction to it
T17 chain: T1 chain with P28A, A51S

[18] = target: T18, IGF-I G32A (G1S-A70V background) displayed on phage (human; bacteriophage M13)
T18 construct: not shown: Display carrier: M13 gene III protein fragment (residues 249-406) and the junction to it
T18 chain: T1 chain with G32A, A51S

B1: human IGFBP-1 (other, UniProt P08833 26-259, looked up)
chain: APWQCAPCSAEKLALCPPVSASCSEVTRSAGCGCCPMCALPLGAACGVATARCARGLSCRALPGEQQPLHALTRGQGACVQESDASAPHAAEAGSPESPESTEITEEELLDNFHLMAPSEEDHSILWDAISTYDGSKALHVTNIKKWKEPCRIELYRVVESLAKAQETSGEEISKFYLPNCNKNGFYHSRQCETSMDGEAGLCWCVYPWNGKRIPGSPEIRGDPNCQIYFNVQN
notes: Secreted recombinant protein
relative IC50 (IC50mut/IC50 G1S-A70V) [1]: 1.6 fold
relative IC50 (IC50mut/IC50 G1S-A70V) [2]: 1.1 fold
relative IC50 (IC50mut/IC50 G1S-A70V) [3]: 1.6 fold
relative IC50 (IC50mut/IC50 G1S-A70V) [4]: 1.9 fold
relative IC50 (IC50mut/IC50 G1S-A70V) [5]: 1.5 fold
relative IC50 (IC50mut/IC50 G1S-A70V) [6]: 1 fold
relative IC50 (IC50mut/IC50 G1S-A70V) [7]: 1.1 fold
relative IC50 (IC50mut/IC50 G1S-A70V) [8]: 0.5 fold
relative IC50 (IC50mut/IC50 G1S-A70V) [9]: 1.6 fold
relative IC50 (IC50mut/IC50 G1S-A70V) [10]: 5.2 fold
relative IC50 (IC50mut/IC50 G1S-A70V) [11]: 0.8 fold
relative IC50 (IC50mut/IC50 G1S-A70V) [12]: 2 fold
relative IC50 (IC50mut/IC50 G1S-A70V) [13]: 1.7 fold
relative IC50 (IC50mut/IC50 G1S-A70V) [14]: 0.8 fold
relative IC50 (IC50mut/IC50 G1S-A70V) [15]: 1.4 fold
relative IC50 (IC50mut/IC50 G1S-A70V) [16]: 2.8 fold
relative IC50 (IC50mut/IC50 G1S-A70V) [17]: 1.1 fold
relative IC50 (IC50mut/IC50 G1S-A70V) [18]: 1.3 fold
